Experimental data taken from article PMC10786891, “Massively parallel profiling of RNA-targeting CRISPR-Cas13d”.
Substitutions are numbered along the chain they refer to. Numbers in names are those of the source.

T1: EsCas13d, nuclease-dead (Eubacterium siraeum, UniProt B0MS50, R295A;H300A;R849A;H854A)
T1 sequence: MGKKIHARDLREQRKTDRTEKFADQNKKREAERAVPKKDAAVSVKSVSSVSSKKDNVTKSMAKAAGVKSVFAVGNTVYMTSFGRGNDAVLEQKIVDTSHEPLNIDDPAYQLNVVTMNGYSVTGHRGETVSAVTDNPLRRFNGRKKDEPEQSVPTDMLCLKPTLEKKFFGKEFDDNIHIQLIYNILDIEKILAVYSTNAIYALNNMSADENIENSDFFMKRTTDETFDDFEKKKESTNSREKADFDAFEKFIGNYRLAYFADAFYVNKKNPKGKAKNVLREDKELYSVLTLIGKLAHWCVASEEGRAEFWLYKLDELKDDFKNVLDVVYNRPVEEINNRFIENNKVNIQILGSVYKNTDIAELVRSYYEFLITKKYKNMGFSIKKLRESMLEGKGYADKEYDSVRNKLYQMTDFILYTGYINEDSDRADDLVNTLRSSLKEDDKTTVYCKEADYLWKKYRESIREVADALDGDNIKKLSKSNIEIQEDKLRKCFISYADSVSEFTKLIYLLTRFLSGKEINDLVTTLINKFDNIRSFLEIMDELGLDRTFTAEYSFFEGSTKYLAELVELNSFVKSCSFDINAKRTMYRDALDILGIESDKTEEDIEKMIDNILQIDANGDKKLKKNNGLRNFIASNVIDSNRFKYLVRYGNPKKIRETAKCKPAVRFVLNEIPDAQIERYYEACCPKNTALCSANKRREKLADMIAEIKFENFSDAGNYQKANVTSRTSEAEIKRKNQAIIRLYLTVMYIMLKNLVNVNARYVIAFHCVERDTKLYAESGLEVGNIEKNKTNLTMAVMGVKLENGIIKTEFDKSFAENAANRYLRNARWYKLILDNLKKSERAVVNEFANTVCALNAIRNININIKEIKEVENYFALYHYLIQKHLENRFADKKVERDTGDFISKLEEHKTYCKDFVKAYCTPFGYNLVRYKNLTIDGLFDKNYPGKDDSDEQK

B1: target 3 A12U (mixed)
RNA 1: CACCCGUGCAAAAUUGCAGGGGUCUAAAACGACCUGAAUAUUUCAGAUCAAA
RNA 2: GGGAAUGGAUCCACAUCUACGAAUUCGUUUUUGAUCUGAUAUAUUCAGGUCUGCAGAUCGGAAGAGCACACGU
B2: target 3 insU 3' of 11,insC 3' of 5 (mixed)
RNA 1: B1 RNA 1
RNA 2: GGGAAUGGAUCCACAUCUACGAAUUCGUUUUUGAUCUGAAAUUAUUCACGGUCUGCAGAUCGGAAGAGCACACGU
B3: target 3 MT (mixed)
RNA 1: B1 RNA 1
RNA 2: B1 RNA 2 with U40A
B4: target 3 insU 3' of 6,insU 3' of 6 (mixed)
RNA 1: B1 RNA 1
RNA 2: B2 RNA 2 with U43A, A44U, U46C, C47U, A48U, C49A
B5: target 3 U2C (mixed)
RNA 1: B1 RNA 1
RNA 2: B1 RNA 2 with U40A, U50C
B6: target 3 insA 3' of 22,insC 3' of 2 (mixed)
RNA 1: B1 RNA 1
RNA 2: GGGAAUGGAUCCACAUCUACGAAUUCGUUUAUUGAUCUGAAAUAUUCAGGUCCUGCAGAUCGGAAGAGCACACGU
B7: target 3 C1G (mixed)
RNA 1: B1 RNA 1
RNA 2: B1 RNA 2 with U40A, C51G
B8: target 3 insU 3' of 11,insC 3' of 4 (mixed)
RNA 1: B1 RNA 1
RNA 2: B2 RNA 2 with C49G, G50C
B9: target 3 insG 3' of 10,insU 3' of 3 (mixed)
RNA 1: B1 RNA 1
RNA 2: B2 RNA 2 with U43G, C49G, G51U
B10: target 3 C6G,A11G (mixed)
RNA 1: B1 RNA 1
RNA 2: B1 RNA 2 with U40A, A41G, C46G
B11: target 3 U21C (mixed)
RNA 1: B1 RNA 1
RNA 2: B1 RNA 2 with U31C, U40A
B12: target 3 insG 3' of 8,insG 3' of 2 (mixed)
RNA 1: B1 RNA 1
RNA 2: B2 RNA 2 with U43A, A44U, U45G, C49G, G51U, U52G
B13: target 3 U2C,C6G (mixed)
RNA 1: B1 RNA 1
RNA 2: B1 RNA 2 with U40A, C46G, U50C
B14: target 3 U2G,A13G (mixed)
RNA 1: B1 RNA 1
RNA 2: B1 RNA 2 with A39G, U40A, U50G
B15: target 3 G3C,U8C (mixed)
RNA 1: B1 RNA 1
RNA 2: B1 RNA 2 with U40A, U44C, G49C
B16: target 3 del8,del22 (mixed)
RNA 1: B1 RNA 1
RNA 2: GGGAAUGGAUCCACAUCUACGAAUUCGUUUUGAUCUGAAAUAUCAGGUCUGCAGAUCGGAAGAGCACACGU
B17: target 3 U7A,U22A (mixed)
RNA 1: B1 RNA 1
RNA 2: B1 RNA 2 with U30A, U40A, U45A
B18: target 3 G4C,A9G (mixed)
RNA 1: B1 RNA 1
RNA 2: B1 RNA 2 with U40A, A43G, G48C
B19: target 3 insG 3' of 6,insG 3' of 5 (mixed)
RNA 1: B1 RNA 1
RNA 2: B2 RNA 2 with U43A, A44U, U46C, C47G, C49G
B20: target 3 insC 3' of 8,insC 3' of 5 (mixed)
RNA 1: B1 RNA 1
RNA 2: B2 RNA 2 with U43A, A44U, U45C
B21: target 3 C1A,U7G (mixed)
RNA 1: B1 RNA 1
RNA 2: B1 RNA 2 with U40A, U45G, C51A
B22: target 3 insU 3' of 5,insA 3' of 2 (mixed)
RNA 1: B1 RNA 1
RNA 2: B2 RNA 2 with U43A, A44U, U46C, C47A, A48U, C49G, G51U, U52A
B23: target 3 insU 3' of 3,insA 3' of 3 (mixed)
RNA 1: B1 RNA 1
RNA 2: B2 RNA 2 with U43A, A44U, U46C, C47A, A48G, C49G, G50U, G51A
B24: target 3 G4U,C6U (mixed)
RNA 1: B1 RNA 1
RNA 2: B1 RNA 2 with U40A, C46U, G48U
B25: target 3 insC 3' of 8,insA 3' of 8 (mixed)
RNA 1: B1 RNA 1
RNA 2: B2 RNA 2 with U43A, A44U, U45C, U46A, C47U, A48C, C49A
B26: target 3 insC 3' of 5,insG 3' of 1 (mixed)
RNA 1: B1 RNA 1
RNA 2: B2 RNA 2 with U43A, A44U, U46C, C47A, A48C, C49G, G51U, U52C, C53G
B27: target 3 U2A,A12G (mixed)
RNA 1: B1 RNA 1
RNA 2: B1 RNA 2 with U40G, U50A
B28: target 3 insC 3' of 11 (mixed)
RNA 1: B1 RNA 1
RNA 2: GGGAAUGGAUCCACAUCUACGAAUUCGUUUUUGAUCUGAAACUAUUCAGGUCUGCAGAUCGGAAGAGCACACGU
B29: target 3 insA 3' of 15,insU 3' of 1 (mixed)
RNA 1: B1 RNA 1
RNA 2: B2 RNA 2 with G38A, A39G, U42A, C49G, G51U, U52C, C53U
B30: target 1 insA 3' of 22,insG 3' of 8 (mixed)
RNA 1: CACCCGUGCAAAAAUGCAGGGGUCUAAAACUGAGCGGAUAACCUCUCUAUGG
RNA 2: GGGAAUGGAUCCACAUCUACGAAUUCGUACACAUAGAGAGGUUAUGCCGCUCACCGAGAUCGGAAGAGCACACGU
B31: target 1 G15C,C22U (mixed)
RNA 1: B30 RNA 1
RNA 2: GGGAAUGGAUCCACAUCUACGAAUUCGUAUCAUAGACAGGUUAUCCGCUCACCGAGAUCGGAAGAGCACACGU
B32: target 1 insC 3' of 14 (mixed)
RNA 1: B30 RNA 1
RNA 2: GGGAAUGGAUCCACAUCUACGAAUUCGUACCAUAGAGACGGUUAUCCGCUCACCGAGAUCGGAAGAGCACACGU

These binders were tested against T1, EsCas13d, nuclease-dead (assay: crRNA (strand 1, pre-loaded); Mg2+; 40 mM Tris-HCl pH 7.5, 150 mM NaCl, 6 mM MgCl2, 1 mM DTT, 0.1% Tween-20, 0.2 mg/ml BSA; 25 C; 10 min per concentration, then washed). Conditions: tags: His6-TwinStrep-SUMO cleaved; N-terminal SNAP kept (SNAP-Surface 488); label: 3' end held by stalled T7 RNA polymerase.
With B1 the Kd was 73.5 ± 19.5 nM. B2 showed a Kd of 81.5 ± 12.5 nM. In the case of B3, the Kd is reported as 15.6 ± 0.185 nM. In the case of B4, the Kd is reported as 17.3 ± 1.2 nM. Work on B5 yielded a Kd of 88.5 ± 18 nM. Work on B6 yielded a Kd of 84.5 ± 23.5 nM. B7 was tested, and the Kd was 28.8 ± 4.15 nM. For B8, the Kd was 90 ± 26 nM. B9 showed a Kd of 111 ± 28.5 nM. B10 showed a Kd of 60 ± 18 nM. B11 gave a Kd of 71 ± 18 nM. With B12 the Kd was 57 ± 27 nM. For B13, the Kd was 31.5 ± 4.5 nM. With B14 the Kd was 73.5 ± 29 nM. In the case of B15, the Kd is reported as 71 ± 6 nM. B16 showed a Kd of 74.5 ± 13 nM. Work on B17 yielded a Kd of 42.5 ± 7.25 nM. B18 gave a Kd of 43.5 ± 6.5 nM. Binder B19 has a Kd of 8.85 ± 0.8 nM. B20 was tested, and the Kd was 74.5 ± 9.5 nM. Binder B21 has a Kd of 24.5 ± 6 nM. Work on B22 yielded a Kd of 21.2 ± 3.65 nM. For B23, the Kd was 28.7 ± 3 nM. Binder B24 has a Kd of 7.45 ± 0.85 nM. With B25 the Kd was 76.5 ± 19 nM. Work on B26 yielded a Kd of 38.5 ± 13 nM. B27 was tested, and the Kd was 38 ± 6 nM. B28 was tested, and the Kd was 83.5 ± 29 nM. For B29, the Kd was 51 ± 5 nM. B30 was tested, and the Kd was 17.4 ± 1 nM. B31 showed a Kd of ~70 nM. B32 was tested, and the Kd was 43 ± 6 nM.
